Our source for the Kd and NCB values is patent US20260152557A1 (Adimab, published 2026).

Experiment [1] concerns the target T1, human CD3εδ-Fc heterodimer (Hu CD3ε Fc / CD3δ Fc-HIS) (human, UniProt P04234 22-100).
T1 construct: range 22-100; Produced in HEK 293 cells with a heterologous signal peptide; heterodimer purified by Ni Sepharose and Mono Q; also called Hu CD3εδ Fc heterodimer; CD3εδ Fc-HIS heterodimer; not shown: Fc-HIS part of CD3δ Fc-HIS
The experiment in a line: BLI (Octet), yeast-produced IgG on AHC sensor, CD3εδ-Fc 100 nM in solution, pH 7.4. How it is done: (§1) Anti-CD3 antibodies Antibody Nos. 1-13 were produced as human IgG1 antibodies in yeast or CHO cells. IgGs produced in yeast were aglycosylated, CHO) produced IgGs had standard CH2 glycosylation. Binding affinity to human or cynomolgus CD3εδ-Fc at pH 7.4 and pH 6.0 was measured via biolayer interferometry (BLI) using the ForteBio OCTET® HTX system and analyzed using the ForteBio software.
(§2) Kinetics were analyzed using the 1:1 binding model.
For orientation: Biolayer interferometry detects binding as a change in optical thickness at a sensor tip.

Experiment [2] deals with T2, cynomolgus CD3εδ-Fc heterodimer (Cy CD3ε Fc / CD3δ Fc-HIS) (cynomolgus, UniProt Q95LI8 22-100).
T2 construct: range 22-100; Produced in HEK 293 cells; also called Cy CD3εδ Fc heterodimer; not shown: Fc-HIS part of CD3δ Fc-HIS
T2 sequence (chain, as listed by the source mutant, form in doubt, chain 1 of 2): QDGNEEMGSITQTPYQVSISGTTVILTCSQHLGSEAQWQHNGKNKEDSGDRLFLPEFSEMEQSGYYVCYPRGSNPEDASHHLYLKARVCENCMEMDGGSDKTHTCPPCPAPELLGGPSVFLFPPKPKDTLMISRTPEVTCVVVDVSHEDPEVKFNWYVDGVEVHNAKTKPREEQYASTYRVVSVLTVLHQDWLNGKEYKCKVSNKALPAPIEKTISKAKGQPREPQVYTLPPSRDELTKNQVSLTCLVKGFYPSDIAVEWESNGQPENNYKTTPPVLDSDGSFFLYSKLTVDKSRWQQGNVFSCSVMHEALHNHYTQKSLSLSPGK
T2 sequence (Q95LI8 22-100, stated change not applied, form in doubt, chain 2 of 2): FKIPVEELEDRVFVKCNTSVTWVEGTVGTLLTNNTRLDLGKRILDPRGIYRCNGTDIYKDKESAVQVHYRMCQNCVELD
The experiment is described as above. The protocol:
as §1, §2

Experiment [3] deals with T3, cynomolgus CD3 on HSC-F cells (cynomolgus, UniProt Q95LI5 22-198).
T3 construct: whole, on cells; also called Cyno HSC-F; cynomolgus HSC-F cells
T3 sequence (Q95LI5 22-198): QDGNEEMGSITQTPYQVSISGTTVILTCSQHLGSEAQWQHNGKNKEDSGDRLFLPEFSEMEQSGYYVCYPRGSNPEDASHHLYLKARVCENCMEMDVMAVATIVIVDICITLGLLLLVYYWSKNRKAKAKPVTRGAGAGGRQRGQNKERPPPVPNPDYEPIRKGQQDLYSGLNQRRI
The experiment in a line: flow cytometry, yeast-produced IgG 100 nM on HSC-F cells, pH 6.0. How it is done: (§3) Anti-CD3 antibodies Antibody Nos. 1-13 were produced as aglycosylated IgGs comprising a IgG1 Fc region in yeast cells. Binding to human or cynomolgus CD3-expressing cells (human CD3+ Jurkat cells or cynomolgus HSC-F cells, respectively) at pH 7.4 and pH 6.0 were measured by fluorescence-activated single cell sorting (FACS). Normalized cell binding (NCB) values were calculated based on median fluorescence intensity (MFI) values, CD3 negative Jurkat cells were used as a negative control.
(§4) Cell binding assay, CD3+ and CD3− human Jurkat cells (ATCC) and cynomolgus HSC-F cells (NIH) were thawed and washed with cold PBSF buffer, pH 7.4 (PBS+0.1% BSA, pH 7.4). About 200,000 cells were aliquoted per well of a 96-well plate (FACS Assay Plate VWR BD 353263) and pelleted by centrifugation (5 minutes at 500×g). The cells were washed with either PBSF pH 7.4 or PBSF pH 6.0 (PBS+0.1% BSA, pH 6.0), and then resuspended in 100 μl in either PBSF pH 7.4 or PBSF pH 6.0 with IgG antibody (100 nM) produced in yeast as described above. The mixture (cells+antibody) was incubated for 20 minutes on ice, then washed twice with either PBSF pH 7.4 or PBSF pH 6.0. Cells were resuspended in 50 μl of propidium iodide (Roche; 1:500 dilution) and anti-human IgG-RPE (Southern Biotech; 1:100 dilution) prepared in either PBSF pH 7.4 or PBSF pH 6.0, then incubated for 20 minutes on ice in the dark before cells were washed twice with either PBSF pH 7.4 or PBSF pH 6.0. Binding was analyzed on FACS Canto 11.
A general note: A flow cytometer gives signals particle by particle.

The target of experiment [4] is T1, human CD3εδ-Fc heterodimer (Hu CD3ε Fc …). The experiment in a line: BLI (Octet), yeast-produced IgG on AHC sensor, CD3εδ-Fc 100 nM in solution, pH 6.0. How it is done: as §1, §2
For experiment [5], the target named is T2, cynomolgus CD3εδ-Fc heterodimer (Cy …). Described as above. The protocol:
as §1, §2

Experiment [6] has as its target T3, cynomolgus CD3 on HSC-F cells. The experiment in a line: flow cytometry, yeast-produced IgG 100 nM on HSC-F cells, pH 7.4. The protocol: as §3, §4
In experiment [7] the target is T2, cynomolgus CD3εδ-Fc heterodimer (Cy …). Kind of experiment: BLI (Octet), CHO-produced IgG on AHC sensor, CD3εδ-Fc 100 nM in solution, pH 6.0. How it is done: as §1, §2
For experiment [8] the target is unchanged. Kind of experiment: BLI (Octet), CHO-produced IgG on AHC sensor, CD3εδ-Fc 100 nM in solution, pH 7.4. The protocol:
as §1, §2

Experiment [9] has as its target T4, human CD3 on CD3+ Jurkat cells (human, UniProt P07766 23-207).
T4 construct: whole, on cells; The whole CD3 complex stands on the cells; also called Human CD3 Jurkat; human CD3+ Jurkat cells
Kind of experiment: flow cytometry, yeast-produced IgG 100 nM on CD3+ Jurkat cells, pH 6.0. How it is done:
as §3, §4

In experiment [10] the target is T4, human CD3 on CD3+ Jurkat cells. Kind of experiment: flow cytometry, yeast-produced IgG 100 nM on CD3+ Jurkat cells, pH 7.4. The protocol:
as §3, §4

Experiment [11] has as its target T1, human CD3εδ-Fc heterodimer (Hu CD3ε Fc …). Kind of experiment: SPR (Biacore 8K), CHO-produced Fab, monovalent, pH 7.4. The protocol: (§5) Anti-CD3 antibodies (Antibody Nos. 1-13) were produced as human IgG1 antibodies in yeast or Chinese hamster ovary (CHO) cells, and Fab fragments were generated from the IgG1 antibodies by papain digestion and purified IgGs produced in yeast were aglycosylated. CHO produced IgGs had standard CH2 glycosylation. […] Monovalent binding affinity to human or cynomolgus CD3εδ-Fc at pH 7.4 and pH 6.0 were measured via surface plasmon resonance (SPR) using the BIACORE® 8K (Cytiva, previously GE Healthcare Life Sciences) system and analyzed using BIACORE® Evaluation Software.
(§6) BIACORE® KD measurements (surface plasmon resonance; SPR). BIACORE® affinity measurements were performed generally as previously described. Briefly, human CD3εδ-Fc heterodimer produced as described above was immobilized to a NiNTA sensor chip in a BIACORE® 8K (Cytiva, previously GE Healthcare Life Sciences) to a response level of ˜500 RUs. […] The sensor chip was doubly regenerated between cycles using 0.35 M EDTA and 0.1 M NaOH. The resulting data were double reference subtracted and fit to a 1:1 binding model using BIACORE® Evaluation Software.

The target in experiment [12] is T2, cynomolgus CD3εδ-Fc heterodimer (Cy …). The experiment is described as above. How it is done:
as §5, §6

For experiment [13], the target named is T1, human CD3εδ-Fc heterodimer (Hu CD3ε Fc …). Kind of experiment: SPR (Biacore 8K), yeast-produced Fab, monovalent, pH 6.0. The protocol:
as §5, §6
A general note: SPR reads the build-up and loss of mass on a sensor chip optically.

The target is the same in experiment [14]. The experiment in a line: SPR (Biacore 8K), yeast-produced Fab, monovalent, pH 7.4. The protocol: as §5, §6
The target is the same in experiment [15]. The experiment in a line: BLI (Octet), CD3εδ-Fc on AHC sensor, CHO-derived Fab 100 nM in solution, pH 7.4.
The target is the same in experiment [16]. The experiment in a line: BLI (Octet), CD3εδ-Fc on AHC sensor, CHO-derived Fab 100 nM in solution, pH 6.0.
Experiment [17] shares this target. The experiment in a line: SPR (Biacore 8K), CHO-produced Fab, monovalent, pH 6.0. The protocol: as §5, §6
The target of experiment [18] is T2, cynomolgus CD3εδ-Fc heterodimer (Cy …). The description is as above. How it is done:
as §5, §6

T1 sequence (chain, as listed by the source mutant, form in doubt, chain 1 of 2): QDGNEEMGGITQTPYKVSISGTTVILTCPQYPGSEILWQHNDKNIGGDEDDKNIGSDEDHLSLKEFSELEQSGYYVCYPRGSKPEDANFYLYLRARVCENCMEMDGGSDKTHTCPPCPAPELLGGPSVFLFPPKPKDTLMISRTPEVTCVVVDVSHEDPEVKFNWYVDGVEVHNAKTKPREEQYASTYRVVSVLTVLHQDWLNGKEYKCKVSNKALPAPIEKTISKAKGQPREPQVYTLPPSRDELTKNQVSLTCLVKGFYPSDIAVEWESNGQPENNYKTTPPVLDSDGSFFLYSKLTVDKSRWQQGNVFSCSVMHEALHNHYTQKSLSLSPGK
T1 sequence (P04234 22-100, stated change not applied, form in doubt, chain 2 of 2): as the sequence (Q95LI8 22-100, stated change not applied, form in doubt, chain 2 of 2) above, with V5I, K15N, V20I, T32S, N33D, N34I, A64T, N74S counted along it
T4 sequence (P07766 23-207): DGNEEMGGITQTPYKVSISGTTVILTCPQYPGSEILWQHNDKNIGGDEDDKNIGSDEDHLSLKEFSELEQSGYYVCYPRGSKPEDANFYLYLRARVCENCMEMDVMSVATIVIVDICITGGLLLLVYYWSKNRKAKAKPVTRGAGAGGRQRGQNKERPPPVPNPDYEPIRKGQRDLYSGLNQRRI

B1: ADI-26906 (Antibody No. 1), human IgG1 (antibody, V domains shown)
VH: QVQLVQSGAEVKKPGASVKVSCKASGFNIKDYYMHWVRQAPGQRLEWMGWIDLENANTIYDAKFQGRVTITRDTSASTAYMELSSLRSEDTAVYYCARDAYGRYFYDVWGQGTLVTVSS
VL: DIVMTQSPDSLAVSLGERATINCKSSQSLLNARTGKNYLAWYQQKPGQPPKLLIYWASTRESGVPDRFSGSGSGTDFTLTISSLQAEDVAVYYCKQSYSRRTFGGGTKVEIK
notes: Non-pH-dependent parent; Tested as human IgG1 (yeast-produced aglycosylated, or CHO-produced); also called Ab No. 1
Take B1: the dissociation constant (Kd) in experiment [1] turned out to be 4.35 nM; in experiment [2] it was 4.1 nM; in experiment [4] it was 2.84 nM; in experiment [5] it was 2.5 nM; in [7], 5.89 nM; in [8], 5.87 nM. For the same molecule, the NCB was 560 in experiment [3], 167 in experiment [6], 203 in experiment [9] and 149 in experiment [10].

B2: Fab of ADI-26906 (Antibody No. 1) (Fab, V domains shown)
VH: QVQLVQSGAEVKKPGASVKVSCKASGFNIKDYYMHWVRQAPGQRLEWMGWIDLENANTIYDAKFQGRVTITRDTSASTAYMELSSLRSEDTAVYYCARDAYGRYFYDVWGQGTLVTVSS
VL: DIVMTQSPDSLAVSLGERATINCKSSQSLLNARTGKNYLAWYQQKPGQPPKLLIYWASTRESGVPDRFSGSGSGTDFTLTISSLQAEDVAVYYCKQSYSRRTFGGGTKVEIK
notes: Fab made by papain digestion of the human IgG1 (yeast- or CHO-produced); also called Antibody No. 1 Fab; ADI-26906 Fab
Regarding B2, the Kd in experiment [11] turned out to be 1.09 nM; in experiment [12], 1.09 nM; in experiment [13] it was 1.9 nM; in experiment [14] it was 2.4 nM; in experiment [15], 6.03 nM; in [16] it was 5.81 nM. Moreover, the equilibrium dissociation constant (Kd) in experiment [17] turned out to be 1.25 nM; in experiment [18], 1.9 nM.

Usually Kd stands for the free concentration of one partner at which half of the binding sites on the other are occupied at equilibrium, for simple one-to-one binding. A high value points to weaker binding.
